One experiment relates to MC3R. The note with it: previous studies; cited from earlier work.
The test system of the next experiment is MC4R. The note with it: previous studies; cited from earlier work.
In experiment [1] the target is mouse melanocortin-3 receptor (mouse) (UniProt P33033).
Experiment [2] concerns the target mouse melanocortin-4 receptor (mouse) (UniProt P56450).
Experiment [3] concerns the target mouse melanocortin-5 receptor (mouse) (UniProt P41149).
The target of experiment [4] is mouse melanocortin-1 receptor (mouse) (UniProt Q01727).
mouse melanocortin-1 receptor (mouse), sequence (Q01727 whole entry): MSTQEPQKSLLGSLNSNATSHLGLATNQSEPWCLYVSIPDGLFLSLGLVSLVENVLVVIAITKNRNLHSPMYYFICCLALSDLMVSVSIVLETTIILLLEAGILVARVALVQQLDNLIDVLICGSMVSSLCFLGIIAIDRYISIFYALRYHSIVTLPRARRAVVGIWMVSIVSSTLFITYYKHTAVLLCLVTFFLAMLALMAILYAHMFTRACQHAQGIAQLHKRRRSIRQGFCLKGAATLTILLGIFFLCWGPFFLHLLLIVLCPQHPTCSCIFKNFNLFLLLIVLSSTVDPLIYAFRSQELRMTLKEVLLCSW

mouse melanocortin-5 receptor (mouse), sequence (P41149 whole entry): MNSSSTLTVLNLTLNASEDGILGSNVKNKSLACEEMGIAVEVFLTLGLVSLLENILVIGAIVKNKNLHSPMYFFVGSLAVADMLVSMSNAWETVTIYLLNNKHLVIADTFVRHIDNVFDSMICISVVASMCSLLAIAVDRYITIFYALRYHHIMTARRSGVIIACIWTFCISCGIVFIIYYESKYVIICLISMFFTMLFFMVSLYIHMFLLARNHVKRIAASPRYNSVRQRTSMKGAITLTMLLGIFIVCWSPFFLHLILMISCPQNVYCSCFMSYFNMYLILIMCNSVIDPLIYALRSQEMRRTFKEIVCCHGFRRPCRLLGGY
mouse melanocortin-3 receptor (mouse), sequence (P33033 whole entry): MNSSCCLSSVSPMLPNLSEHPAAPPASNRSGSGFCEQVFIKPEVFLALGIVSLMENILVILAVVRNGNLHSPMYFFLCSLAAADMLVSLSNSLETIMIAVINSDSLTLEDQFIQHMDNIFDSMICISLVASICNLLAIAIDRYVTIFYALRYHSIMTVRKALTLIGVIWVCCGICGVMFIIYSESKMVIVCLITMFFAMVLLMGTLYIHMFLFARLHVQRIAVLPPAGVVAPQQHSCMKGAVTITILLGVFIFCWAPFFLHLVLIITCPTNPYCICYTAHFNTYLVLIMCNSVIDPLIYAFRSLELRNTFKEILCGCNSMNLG
mouse melanocortin-4 receptor (mouse), sequence (P56450 whole entry): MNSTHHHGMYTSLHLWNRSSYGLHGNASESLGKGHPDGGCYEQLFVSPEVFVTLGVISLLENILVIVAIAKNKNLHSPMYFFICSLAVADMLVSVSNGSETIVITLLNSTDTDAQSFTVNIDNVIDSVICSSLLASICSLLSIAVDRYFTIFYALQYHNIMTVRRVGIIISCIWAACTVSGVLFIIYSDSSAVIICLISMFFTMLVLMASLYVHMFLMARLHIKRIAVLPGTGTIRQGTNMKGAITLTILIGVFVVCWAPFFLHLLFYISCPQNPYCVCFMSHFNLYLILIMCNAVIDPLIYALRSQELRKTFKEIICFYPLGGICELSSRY

In the case of Ac-His-(pI)DPhe-Arg-Trp-NH2, the “MC3R activity” value with MC3R is on record as “partial agonist with antagonist activity”. In the experiment on MC4R, the “MC4R agonist activity” value is “full agonist”.
Regarding NDP-MSH (peptide), the agonist EC50, β-galactosidase cAMP reporter assay in HEK293 cells stably expressing mMC3R in experiment [1] is 0.52 nM. In experiment [2], the agonist EC50, β-galactosidase cAMP reporter assay in HEK293 cells stably expressing mMC4R was found to be 0.32 nM. Moreover, in experiment [3], the agonist EC50, β-galactosidase cAMP reporter assay in HEK293 cells stably expressing mMC5R is 3.4 nM. The agonist EC50, cAMP AlphaScreen assay in HEK293 cells stably expressing mMC1R in experiment [4] is 0.009 nM.

The values are drawn from PMC6515519, “Structure–Activity Relationships of the Tetrapeptide Ac-His-Arg-(pI)DPhe-Tic-NH2 at the Mouse Melanocortin Receptors: Modification at the (pI)DPhe Position Leads to mMC3R Versus mMC4R Selective Ligands” (Molecules, 2019).
